Results published in patent publication US7241873B2, “Recombinant anti-osteopontin antibody and use thereof” (Juridical Foundation the Chemo-sero-therapeutic Research …, priority 2001, dated 2007).

Experiments:
[1] = target: T1, human OPN (GST-OPN-a, GST-OPN-b, GST-OPN-c, GST-N half, GST-C half, CHO/OPN-a, thrombin-cleaved OPN) (Homo sapiens, UniProt P10451); assay: Western blotting of murine monoclonal antibodies with OPN and thrombin digestion products; assay type: binding
T1 construct: cDNAs encoding the full-length human OPN-a and OPN-b individually including the respective signal peptide regions; made in house; host or cells: Escherichia coli JM109
T1 sequence (P10451 17-168): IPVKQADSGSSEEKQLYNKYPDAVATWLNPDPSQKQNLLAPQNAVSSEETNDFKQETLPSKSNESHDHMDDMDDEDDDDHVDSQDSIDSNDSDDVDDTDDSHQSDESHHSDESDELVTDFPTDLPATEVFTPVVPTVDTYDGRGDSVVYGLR
Procedure: (§1) The binding potencies of the murine monoclonal antibodies 2K1 (referred to as “murine 2K1 antibody” hereinafter) and 4C1 recovered in the Example 2 to OPN and the thrombin digestion products thereof were tested by Western blotting method. […] Further, these monoclonal antibodies were not only bound to the recombinant OPNs of non-glycosylated type as generated in Escherichia coli but also reacted with the CHO/OPN-a protein of sugar-chain-bound type and the thrombin digestion products thereof (referred to as “thrombin-cleaved OPN” hereinafter).

[2] = system: human OPN (GST-OPN-a, GST-OPN-b, GST-OPN-c, GST-N half, GST-C half, CHO/OPN-a, thrombin-cleaved OPN); assay: as above; assay type: binding
Procedure: as §1

[3] = system: adhesion of human fibroblast TIG-7 to CHO/OPN-a; assay: Inhibition of TIG-7 cell adhesion to OPN; assay type: cell-based
Procedure: (§2) It was examined by the following method as to whether or not the murine monoclonal antibodies inhibited cell adhesion to OPN. First, a 96-well plate was precoated with various concentrations of the CHO/OPN-a at 4° C. overnight, which was then treated with 0.5% BSA in PBS under conditions of 37° C. for 10 minutes, so as to block non-specific adhesion. A human fibroblast TIG-7 or SW480 cell transformed with the cDNA of an integrin subunit α9 (referred to as “α9-transformed SW480 cell” hereinafter) was suspended in D-MEM containing 0.25% BSA; 200 μl of the resulting cell suspension (at a cell concentration of 5×10^4 cells/well) was injected in a 96-well plate precoated with the CHO/OPN-a or nOPN, in the presence or absence of various concentrations of the monoclonal antibodies or synthetic peptides, for incubation at 37° C. for one hour.
(§3) The culture medium was discarded from the plate, and all the wells were rinsed twice with D-MEM containing 0.25% BSA. The adherent cells were fixed and stained with 0.5% crystal violet in 20% methanol for 30 minutes.
All the wells were rinsed three times with water, and the adherent cells were then solubilized into 20% acetic acid. The resulting supernatant recovered from each well was analyzed with an immunoreader, to measure the absorbance at 590 nm to determine the relative count of the cells adhering to the well. All the assays were done in a triplicate fashion, and at least three independent experiments were performed. The values shown represent mean at three independent experiments.

[4] = system: adhesion of TIG-7 cell to vitronectin (VN) or fibronectin (FN); assay: TIG-7 cell adhesion to vitronectin or fibronectin; assay type: cell-based, human
[5] = system: adhesion of α9-transformed SW480 cell to nOPN; assay: Adhesion of α9-transformed SW480 cell to nOPN; assay type: cell-based, human; details: FIG. 2B
Procedure: as §2, §3
All the wells were rinsed three times with water, and the adherent cells were then solubilized into 20% acetic acid. The resulting supernatant recovered from each well was analyzed with an immunoreader, to measure the absorbance at 590 nm to determine the relative count of the cells adhering to the well. […]

[6] = system: adhesion of α9-transformed SW480 cell to vitronectin; assay: Adhesion of α9-transformed SW480 cell to vitronectin; assay type: cell-based, human; details: FIG. 2B
[7] = system: OPN-induced migration of human monocyte U937; assay: OPN-induced U937 cell migration test (ChemoTx); assay type: cell-based; details: U937, OPNs 10 μg/ml, antibody 50 μg/ml, FIG. 3b
Procedure: A cell migration test using the U937 cell was performed by using a system ChemoTx101-8 (Neuro Probe Inc.). The cell was adjusted to 2×10^6 cells/ml with D-MEM containing 0.1% BSA, which was then applied to the upper layer on a filter (with a pore size of 8 μm), while the OPN protein was added to the lower layer.
The ChemoTx plate was left to stand in the presence of 5% CO2 at 37° C. for 4 hours. After the plate was left to stand, the filter was fixed with methanol, and was then stained with hematoxylin and eosin (H-E). The number of the cells migrating to the back face of the filter was counted with a microscope (magnification×400). The test was done in a triplicate manner, and the mean was used as data.

[8] = system: human peripheral neutrophil migration toward thrombin-cleaved OPN; assay: Migration of TNF-α-activated human peripheral neutrophil toward thrombin-cleaved OPN; assay type: cell-based; details: for Mean migrating cell counts per 1 mm^3 (neutrophil): thrombin-cleaved OPN 10 μg/mL
Procedure: (§4) By the Ficoll method, a monocyte fraction and a neutrophil fraction were separated from normal human peripheral blood (P. M. Daftarian et al., (1996): Journal of Immunology, 157, 12–20). The intermediate layer between Ficoll and serum was collected and cultured in a flask at 37° C. for one hour. The resulting attached cell was used as monocyte. To the erythrocyte layer remaining after collection of the monocyte fraction was added a 5-fold volume of 3% dextran-PBS to aggregate erythrocyte, followed by centrifugation at 150×g and 4° C. for 5 minutes.
(§5) The aggregated erythrocyte was precipitated, while in the resulting supernatant, neutrophil existed in suspended state. Then, the fraction was centrifuged at 500×g and ambient temperature for 20 minutes, to recover neutrophil. The monocyte and neutrophil as recovered in such manner were cultured overnight with human TNF-α (20 ng/mL) for activation. Then, the resulting activated monocyte and neutrophil were used for migration experiments.
(§6) The migration experiments were done, using a 48-well micro chemotaxis chamber (manufactured by Neuro Probe Inc.). After various concentrations of the murine 2K1 antibody were added to the thrombin-cleaved OPN and were then preliminarily left to stand at 37° C. for 15 minutes, the mixtures were added to the lower chamber (to a final human OPN concentration of 10 μg/mL). Placing thereon a polycarbonate filter (pore size of 5 μm), further, a cell suspension (2×10^6 cells/mL) of 50 μL was added to the upper chamber.
(§7) After culturing in the presence of 5% CO2 at 37° C. for 2 hours, the polycarbonate filter was removed to discard the cells on the upper surface of the filter; subsequently, the cells infiltrating to the back face of the filter were stained with Diff-Quick (manufactured by Baxter International Inc.). The stained cells were counted at a magnification×40. The results are shown as mean cell counts (cells/mm^3)±SD in 6 wells.

[9] = system: human peripheral monocyte migration toward thrombin-cleaved OPN; assay: Migration of TNF-α-activated human peripheral monocyte toward thrombin-cleaved OPN (murine 2K1); assay type: cell-based; details: for Mean migrating cell counts per 1 mm^3 (monocyte): thrombin-cleaved OPN 10 μg/mL
Procedure: as §4, §5, §6, §7

reactivity with GST-N half [1]: reacted
B1: murine 2K1 antibody: murine monoclonal antibody from mice immunized with Peptide 1 (…) of human OPN; hybridoma FERM BP-7883 (antibody, V domains shown)
VH: QVQLQQSGAELVRPGASVKLSCKALGYTFTDYEMHWVKQTPVHGLEWIGAIHPGRGGTAYNQKFKGKATLTADKSSSTAYMELSSLTSEDSAVYYCTRITGYFDVWGAGTTVTVSS
VL: DVLMTQTPLSLPVSLGDQASISCRSSQSIVHSNGNTYLEWYLQKPGQSPKLLIYKVSNRFSGVPDRFSGSGSGTDFTLKISRVEAEDLGVYYCFQGSHVPLTFGAGTKLELKR
notes: murine monoclonal antibody from mice immunized with Peptide 1 (…) of human OPN; hybridoma FERM BP-7883
reactivity with GST-OPN-a, GST-OPN-b, GST-OPN-c [2]: reacted
effect on the inhibition of cell adhesion, comparison and concentration dependence ([3]; TIG-7, FIG. 1C): comparative to the effect exerted by mAb53 and is concentration-dependent
inhibition of cell adhesion to OPN ([3]; antibody 200 μg/ml, TIG-7, FIG. 1B): apparently inhibited
inhibition of adhesion of TIG-7 cell to vitronectin (VN) or fibronectin (FN) [4]: never inhibit
inhibition of adhesion between SW480 cell and nOPN [5]: inhibited
inhibition of adhesion between α9-transformed SW480 cell and vitronectin [6]: never inhibited
inhibition of monocyte migration induced by CHO/OPN-a, thrombin-cleaved OPN and GST-N half [7]: apparently inhibits
inhibition of migration of TNF-α-activated human peripheral neutrophil toward thrombin-cleaved OPN [8]: inhibited
Mean migrating cell counts per 1 mm^3 (neutrophil) ([8]; antibody 0.4 μg/mL): 566.7 ± 60.2 counts per 1 mm^3
Mean migrating cell counts per 1 mm^3 (neutrophil) ([8]; antibody 2 μg/mL): 550.0 ± 49.0 counts per 1 mm^3
Mean migrating cell counts per 1 mm^3 (neutrophil) ([8]; antibody 10 μg/mL): 450.0 ± 90.8 counts per 1 mm^3
Mean migrating cell counts per 1 mm^3 (neutrophil) ([8]; antibody 50 μg/mL): 426.7 ± 30.8 counts per 1 mm^3
inhibition of migration of TNF-α-activated human peripheral monocyte toward thrombin-cleaved OPN [9]: inhibited
Mean migrating cell counts per 1 mm^3 (monocyte) ([9]; antibody 0.4 μg/mL): 258.0 ± 71.9 counts per 1 mm^3
Mean migrating cell counts per 1 mm^3 (monocyte) ([9]; antibody 2 μg/mL): 256.7 ± 66.5 counts per 1 mm^3
Mean migrating cell counts per 1 mm^3 (monocyte) ([9]; antibody 10 μg/mL): 160.0 ± 56.9 counts per 1 mm^3
Mean migrating cell counts per 1 mm^3 (monocyte) ([9]; antibody 50 μg/mL): 75.0 ± 55.4 counts per 1 mm^3
